Source: patent publication US8828923B2, “Insulin derivatives” (Novo Nordisk A/S, priority 2003, dated 2014)

Columns and labels:
[1] = Hydrophobicity (hydrophobic index) k′rel relative to human insulin by isocratic RP-HPLC; type: physicochemical; details: LiChrosorb RP18, isocratic elution, 40° C., pH 7.3 phosphate/acetonitrile
Procedure: The elution was monitored by following the UV absorption of the eluate at 214 nm. Void time, t0, was found by injecting 0.1 mM sodium nitrate.

[2] = biological target: human insulin receptor (Homo sapiens, UniProt P06213); assay: Assay (I) insulin receptor binding, SPA antibody capture assay; details: recombinant human insulin receptor - exon 11, A14 Tyr[125I]-human insulin tracer
Procedure: SPA-PVT antibody-binding beads, anti-mouse reagent (Amersham Biosciences, Cat No. PRNQ0017) were mixed with 25 ml of binding buffer (100 mM HEPES pH 7.8; 100 mM sodium chloride, 10 mM MgSO4, 0.025% Tween-20). […] A total of 100 μl was then added and a dilution series is made from appropriate samples. To the dilution series was then added 100 μl of reagent mix and the samples were incubated for 16 hours while gently shaken. The phases were the then separated by centrifugation for 1 min and the plates counted in a Topcounter. The binding data were fitted using the nonlinear regression algorithm in the GraphPad Prism 2.01 (GraphPad Software, San Diego, Calif.).
Specific antibodies (F12) were produced by monoclonal technique: RBF mice were immunized by injecting 50 μg of purified mIR in FCA subcutaneously followed by two injections with 20 μg of mIR in FIA. Highresponder mice were boosted intravenously with 25 μg of mIR and the spleens were harvested after 3 days. Spleen cells were fused with the myeloma Fox cell line (Kohler, G & Milstein C. (1976), European J. Immunology, 6:511-19; Taggart RT et al (1983), Science 219:1228-30). Supernatants were screened for antibody production in a mIR specific ELISA. Positive wells were cloned and tested in Western blotting.

[3] = test system: Sprague Dawley male rats; assay: Assay (II) potency relative to human insulin, euglycaemic clamp with i.v. infusion; type: in vivo; details: rat clamp, i.v. infusion for 300 min, 15 and 20 pmol/min/kg
Excerpt: Sprague Dawley male rats weighing 238-383 g on the experimental day were used for the clamp experiment. The rats had free access to feed under controlled ambient conditions and were fasted overnight (from 3 pm) prior to the clamp experiment.
The rats were acclimatized in the animal facilities for at least 1 week prior to the surgical procedure. Approximately 1 week prior to the clamp experiment Tygon catheters were inserted under halothane anaesthesia into the jugular vein (for infusion) and the carotid artery (for blood sampling) and exteriorised and fixed on the back of the neck. The rats were given Streptocilin vet. (Boehringer Ingelheim; 0.15 ml/rat, i.m.) post-surgically and placed in an animal care unit (25° C.) during the recovery period. In order to obtain analgesia, Anorphin (0.06 mg/rat, s.c.) was administered during anaesthesia and Rimadyl (1.5 mg/kg, s.c.) was administered after full recovery from the anaesthesia (2-3 h) and again once daily for 2 days.
The clamp technique employed was adapted from (1). At 7 am on the experimental day overnight fasted (from 3 pm the previous day) rats were weighed and connected to the sampling syringes and infusion system (Harvard 22 Basic pumps, Harvard, and Perfectum Hypodermic glass syringe, Aldrich) and then placed into individual clamp cages where they rested for ca. 45 min before start of experiment. The rats were able to move freely on their usual bedding during the entire experiment and had free access to drinking water. […] Plasma glucose levels were measured at 10 min intervals throughout and infusion of 20% aqueous glucose was adjusted accordingly in order to maintain euglyceamia. Samples of re-suspended erythrocytes were pooled from each rat and returned in about ½ ml volumes via the carotid catheter.
Rats were killed at the end of experiment using a pentobarbital overdose.
Test compounds and doses: Insulins to be tested were diluted from a stock solution containing 97 μM of the insulin derivative in 5 mM phosphate pH 7.7. The final concentration in the solution ready for use was 0.45 μM of the insulin derivative, 5 mM of phosphate, 100 mM of sodium chloride, 0.007% of polysorbate 20. The pH was 7.7 and the i.v. infusion rate was 15 and 20 pmol-min^−1−kg^−1.
Both stock solutions were stored at −20 C. and thawed overnight at 4° C. before use. The solutions were gently turned upside down several times 15 min before they were transferred to the infusion syringes.

Chain of human insulin receptor (P06213 28-746 isoform P06213-2 limits assumed): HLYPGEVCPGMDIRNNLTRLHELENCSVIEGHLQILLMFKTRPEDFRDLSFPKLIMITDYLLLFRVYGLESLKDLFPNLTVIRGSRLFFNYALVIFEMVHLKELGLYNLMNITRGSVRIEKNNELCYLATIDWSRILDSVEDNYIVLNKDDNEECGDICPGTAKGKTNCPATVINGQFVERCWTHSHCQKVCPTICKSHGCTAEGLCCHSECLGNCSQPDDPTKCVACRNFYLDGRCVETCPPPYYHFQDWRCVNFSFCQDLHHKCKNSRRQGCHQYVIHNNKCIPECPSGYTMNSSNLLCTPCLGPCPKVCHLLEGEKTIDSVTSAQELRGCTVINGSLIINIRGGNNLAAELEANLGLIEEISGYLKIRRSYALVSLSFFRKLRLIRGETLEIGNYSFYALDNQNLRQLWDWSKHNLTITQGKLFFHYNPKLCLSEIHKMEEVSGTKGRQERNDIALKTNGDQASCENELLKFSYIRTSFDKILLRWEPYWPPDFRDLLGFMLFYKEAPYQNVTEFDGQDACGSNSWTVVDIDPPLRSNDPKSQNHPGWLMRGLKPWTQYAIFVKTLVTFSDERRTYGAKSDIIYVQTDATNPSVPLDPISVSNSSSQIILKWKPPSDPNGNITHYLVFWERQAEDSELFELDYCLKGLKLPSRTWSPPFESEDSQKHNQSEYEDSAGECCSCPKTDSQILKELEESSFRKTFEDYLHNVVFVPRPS
Chain of human insulin receptor (P06213 763-1382 partner limits assumed): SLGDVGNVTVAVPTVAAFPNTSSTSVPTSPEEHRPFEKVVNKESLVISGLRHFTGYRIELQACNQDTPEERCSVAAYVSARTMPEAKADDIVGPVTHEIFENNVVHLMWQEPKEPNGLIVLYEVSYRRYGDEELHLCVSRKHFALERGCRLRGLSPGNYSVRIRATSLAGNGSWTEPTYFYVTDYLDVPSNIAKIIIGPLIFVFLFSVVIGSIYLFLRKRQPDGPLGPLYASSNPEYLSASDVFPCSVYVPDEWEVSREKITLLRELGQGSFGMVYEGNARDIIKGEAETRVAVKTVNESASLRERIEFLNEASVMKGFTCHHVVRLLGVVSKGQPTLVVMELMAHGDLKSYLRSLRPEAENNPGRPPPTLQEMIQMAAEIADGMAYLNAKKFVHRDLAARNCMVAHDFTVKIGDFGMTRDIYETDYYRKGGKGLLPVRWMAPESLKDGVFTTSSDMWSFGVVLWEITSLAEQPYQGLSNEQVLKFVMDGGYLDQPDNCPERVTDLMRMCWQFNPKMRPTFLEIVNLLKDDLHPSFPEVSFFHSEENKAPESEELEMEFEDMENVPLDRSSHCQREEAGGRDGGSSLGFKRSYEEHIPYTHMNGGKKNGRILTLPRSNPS

Substance | Receptor binding (% of human insulin) [2] | k′rel (hydrophobic index relative to human insulin) [1] | Potency relative to human insulin [3] [%]
N^εB29—(N^α-(HOOC(CH2)14CO)-γ-Glu) des(B30) Human Insulin | 26 % of human insulin | 0.87 | >50
N^εB29—(N^α-(HOOC(CH2)16CO)-γ-Glu—N-(γ-Glu)) des(B30) Human Insulin | 11 % of human insulin | 1.17 | >50
N^εB29—(N—(Gly-OC(CH2)16CO-γ-L-Glu) des(B30) Human Insulin | 9.1 % of human insulin | 1.57 | –
N^εB29—(N—(HOOC(CH2)14CO-ε-L-LysCO—) des(B30) Human Insulin | 5.7 % of human insulin | 0.90 | –
N^εB29—(N—(L-Glu-OC(CH2)14CO-γ-L-Glu) des(B30) Human Insulin | 13 % of human insulin | 0.33 | –
N^εB29—(N—(L-Glu-OC(CH2)14CO—) des(B30) Human Insulin | 9.4 % of human insulin | 1.17 | –
N^εB29—(N—(L-Sar-OC(CH2)13CO-γ-L-Glu) des(B30) Human Insulin | 20 % of human insulin | 0.63 | –
N^εB29—(N—HOOC(CH2)8CO-γ-Glu) des(B30) human insulin | – | 0.45 | –
N^εB29—(N—HOOC(CH2)14CO-β-L-Asp) des(B30) Human Insulin | 16 % of human insulin | 0.69 | >50
N^εB29—(N—HOOC(CH2)15CO-β-L-Asp) des(B30) Human Insulin | 5.4 % of human insulin | 1.09 | –
N^εB29—(N—HOOC(CH2)16CO-α-Glu)-N-(AspAsp) des(B30) human insulin | – | 1.07 | –
N^εB29—(N—HOOC(CH2)16CO-α-L-Asp) des(B30) Human Insulin | 13 % of human insulin | 1.49 | –
N^εB29—(N—HOOC(CH2)16CO-α-L-Asp)—N-(β-L-Asp) des(B30) Human Insulin | 14 % of human insulin | – | –
N^εB29—(N—HOOC(CH2)16CO-α-L-Glu) des(B30) Human Insulin | 16 % of human insulin | 1.51 | –
N^εB29—(N—HOOC(CH2)16CO-α-L-Glu)—N—(β-L-Asp) des(B30) Human Insulin | 11 % of human insulin | 1.11 | –
N^εB29—[N^α-(HOOC(CH2)11)NHCO(CH2)3CO)-γ-L-Glu] des(B30) Human Insulin | 46 % of human insulin | 0.42 | –
N^εB29—[N—(HOOC(CH2)16CO)—N-(carboxymethyl)-β-Ala] des(B30) Human Insulin | 9.4 % of human insulin | 1.13 | –
NεB29—(Nα-(HOOC(CH2)16CO)-γ-Glu) des(B30) Human Insulin | 9.2 % of human insulin | 1.15 | >50

Now from value to substance, other results behind:

Receptor binding (% of human insulin) [2] | Substance | k′rel (hydrophobic index relative to human insulin) [1] | Potency relative to human insulin [3] [%]
22 % of human insulin | N^εB29—(N—(Gly-OC(CH2)13CO-γ-L-Glu) des(B30) Human Insulin | 0.58 | –
32 % of human insulin | N^εB29—(N—(Gly-OC(CH2)14CO-γ-L-Glu) des(B30) Human Insulin | 0.88 | >50
13 % of human insulin | N^εB29—(N—(L-Asp-OC(CH2)16CO)-γ-L-Glu) des(B30) Human Insulin | 0.70 | –
11 % of human insulin | N^εB29—(N—HOOC(CH2)13CO-β-L-Asp) des(B30) Human Insulin | 0.47 | –
15 % of human insulin | N^εB29—(N—HOOC(CH2)13CO-β-L-Glu) des(B30) Human Insulin | 0.54 | –
37 % of human insulin | N^εB29—(N—HOOC(CH2)14CO-β-D-Asp) des(B30) Human Insulin | – | –
4 % of human insulin | N^εB29—(N—HOOC(CH2)15CO-γ-L-Glu) des(B30) Human Insulin | 1.13 | –
11 % of human insulin | N^εB29—(N—HOOC(CH2)16CO-β-L-Asp) des(B30) Human Insulin | 1.54 | –
13 % of human insulin | N^εB29—(N—HOOC(CH2)16CO-γ-D-Glu) des(B30) Human Insulin | 1.4 | –
7 % of human insulin | N^εB29—(N—HOOC(CH2)16CO-δ-L-Aad) des(B30) Human Insulin | 0.84 | –
